The record followed here is patent US20200317768A1 (published 2020).

In general, Kd refers to the concentration at which binding is half-saturated.

Where a chain is given by its changes, count along the chain named.

B1: M103205H795-MY392/M103202L889-SK1 (antibody, human IgG1, kappa)
heavy: QVTLKESGPVLVKPTETLTLTCTVSGIDLSHDDISWVRQAPGKGLEWVGIISYAGSTYYASWAKGRLTISKDTSKNQVVLTMTNMDPVDTATYYCARGVPAYSHGGDLWGQGTLVTVSSASTKGPSVFPLAPSSKSTSGGTAALGCLVKDYFPEPVTVSWNSGALTSGVHTFPAVLQSSGLYSLSSVVTVPSSSLGTQTYICNVNHKPSNTKVDKKVEPKSCDKTHTCPPCPAPELLTGPSVFLFPPKPKDTLMISRTPEVTCVVVDVSDEDPEVKFNWYVDGVEVHNAKTKPREEQYNLTYRVVSVLTVLHQDWLNGKEYKCKVSNKALPKPIEKTISKAKGQPREPQVYTLPPSREEMTKNQVSLTCLVKGFYPSDIAVEWESNGQPENNYKTTPPVLDSDGSFFLYSKLTVDKSRWQQGNVFSCSVMHEALHNHYTQKSLSLSP
light: DIVMTQSPATLSLSPGERATLSCTSSQSVYHANWLSWFQQKPGQPPKLLIYWASTLAYGVPSRFSGSGSGTDFTLTISSLQPEDAATYYCAGGYGGGRYAFGQGTKVEIKRTVAAPSVFIFPPSDEQLKSGTASVVCLLNNFYPREAKVQWKVDNALQSGNSQESVTEQDSKDSTYSLSSTLTLSKADYEKHKVYACEVTHQGLSSPVTKSFNRGEC
notes: Substitutions introduced into M103205H795-SG1, expressed with M103202L889-SK1 as light chain; EU numbering
B2: M103205H795-MY520/M103202L889-SK1 (antibody, human IgG1, kappa)
heavy: B1 heavy with P234D, S241V, Q297L, L300S
light: B1 light
notes: as for B1
B3: M103205H795-MY400/M103202L889-SK1 (antibody, human IgG1, kappa)
heavy: B1 heavy with L300S, P333E
light: B1 light
notes: as for B1
B4: M103205H795-MY523/M103202L889-SK1 (antibody, human IgG1, kappa)
heavy: B1 heavy with A233G, S241V, Q297L, L300S
light: B1 light
notes: as for B1
B5: M103205H795-MY516/M103202L889-SK1 (antibody, human IgG1, kappa)
heavy: B1 heavy with S241V, Q297L
light: B1 light
notes: as for B1
B6: M103205H795-MY525/M103202L889-SK1 (antibody, human IgG1, kappa)
heavy: B1 heavy with A233T, S241V, L300S
light: B1 light
notes: as for B1
B7: M103205H795-MY514/M103202L889-SK1 (antibody, human IgG1, kappa)
heavy: B1 heavy with S241V
light: B1 light
notes: as for B1
B8: M103205H795-MY524/M103202L889-SK1 (antibody, human IgG1, kappa)
heavy: B1 heavy with A233G, Q297L, L300S
light: B1 light
notes: as for B1
B9: M103205H795-MY515/M103202L889-SK1 (antibody, human IgG1, kappa)
heavy: B1 heavy with Q297L
light: B1 light
notes: as for B1
B10: M103205H795-MY521/M103202L889-SK1 (antibody, human IgG1, kappa)
heavy: B1 heavy with P234D, Q297L, L300S
light: B1 light
notes: as for B1
B11: M103205H795-MY522/M103202L889-SK1 (antibody, human IgG1, kappa)
heavy: B1 heavy with A233G, S241V, L300S
light: B1 light
notes: as for B1

In one assay the target is T1, human FcγRIIaR extracellular domain with C-terminal His-tag (human, UniProt P12318 34-217).
T1 construct: also called human FcgRIIaR; FcγRIIa (type R)
T1 chain: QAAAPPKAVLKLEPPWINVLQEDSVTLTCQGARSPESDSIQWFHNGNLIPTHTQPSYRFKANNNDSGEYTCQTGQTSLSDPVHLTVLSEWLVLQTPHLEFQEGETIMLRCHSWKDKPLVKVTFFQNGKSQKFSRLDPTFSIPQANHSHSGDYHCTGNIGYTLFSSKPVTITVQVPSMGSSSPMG
Kind of assay: SPR (BIACORE); KD of SG1 / KD of variant.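 Further: relative to parent M103205H795-SG1 carrying the SG1 human heavy chain constant region.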
With B1, the “KD fold (SG1 = 1)” value came out at 2.7 fold.
On the same count and under the same terms, with B2 the figure was 3.3 fold.
On the same count and under the same terms, with B3 the figure was 1.5 fold; with B4, 3.7 fold.
The same measure, in the same setting: with B5 the figure was 12.9 fold; with B6, 6.5 fold; with B7, 6.5 fold.
With B8, the “KD fold (SG1 = 1)” value was 3.9 fold.
For the molecule B9, the “KD fold (SG1 = 1)” value came to 4.2 fold.
The same measure, in the same setting: with B10 the figure was 3.3 fold; with B11, 6.5 fold.

A further assay addresses T2, cynomolgus monkey FcγRIIa1 extracellular domain with C-terminal His-tag (cynomolgus monkey).
T2 construct: also called cyno FcgRIIa1; cynoFcγRIIa1
T2 chain: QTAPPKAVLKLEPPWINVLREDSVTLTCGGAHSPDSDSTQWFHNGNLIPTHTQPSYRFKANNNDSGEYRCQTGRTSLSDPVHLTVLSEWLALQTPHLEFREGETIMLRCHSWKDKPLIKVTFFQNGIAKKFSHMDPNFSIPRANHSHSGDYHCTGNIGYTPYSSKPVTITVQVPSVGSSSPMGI
Description: SPR (BIACORE), antibody captured, FcgR analyte. (In general: In SPR one partner is held on a chip, and binding of the other changes the refractive index at the surface.)
With B1, the Kd stood at 300 nM.
Still for that read-out and setting: next, B2: 2500 nM; B3: 18000 nM; B4: 1400 nM.
On the same count and under the same terms, next, B5: 150 nM; B6: 1600 nM.
Still for that read-out and setting: with B7 the figure was 260 nM; with B8, 1000 nM.
The molecule B9 returned a Kd of 140 nM.
On the same count and under the same terms, with B10 the figure was 2500 nM.
Regarding B11, the Kd is 1700 nM.

A further assay deals with T3, cynomolgus monkey FcγRIIIaS extracellular domain with C-terminal His-tag (cynomolgus monkey, UniProt Q8SPW2 21-206 at identity 1.00)).
T3 construct: also called cyno FcgRIIIaS; cynoFcγRIIIaS
T3 chain: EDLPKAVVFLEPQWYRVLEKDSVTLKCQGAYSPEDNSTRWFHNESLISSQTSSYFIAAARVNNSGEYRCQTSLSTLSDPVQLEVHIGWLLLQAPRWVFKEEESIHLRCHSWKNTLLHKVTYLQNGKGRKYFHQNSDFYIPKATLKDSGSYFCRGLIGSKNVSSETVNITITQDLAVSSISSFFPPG
Description: SPR (BIACORE), antibody captured, FcgR analyte.
As to B1, the Kd came out at 4000 nM.
B2: binding was put at a Kd of 2000 nM.
B3 had a Kd of 24000 nM.
Consider B4, for which the Kd was 2100 nM.
Molecule B5 gave a dissociation constant (Kd) of 3000 nM.
Same read-out and setting: with B6 the figure was 1400 nM; with B7, 4400 nM.
Same read-out and setting: with B8 the figure was 2000 nM; with B9, 3800 nM.
In turn, B10 gave a Kd of 2200 nM.
Still for that read-out and setting: with B11 the figure was 1900 nM.

The next assay deals with T4, cynomolgus monkey FcγRIIa3 extracellular domain with C-terminal His-tag (cynomolgus monkey).
T4 construct: also called cyno FcgRIIa3; cynoFcγRIIa3
T4 chain: T2 chain with P95T, T121A, A128S, H133P, D135N
Description: SPR (BIACORE), antibody captured, FcgR analyte.
In turn, B1 had a Kd of 3900 nM.
For the molecule B2, the Kd amounted to 2100 nM.
On the same count and under the same terms, next, B3: 3800 nM; B4: 1100 nM; B5: 790 nM.
As to B6, the affinity, expressed as Kd, was 1100 nM.
As for B7, the Kd was determined as 1500 nM.
The same measure, in the same setting: next, B8: 2700 nM; B9: 2900 nM.
Consider B10, for which the Kd was determined as 4400 nM.
The same measure, in the same setting: next, B11: 930 nM.

The target of another assay is T5, cynomolgus monkey FcγRIIa2 extracellular domain with C-terminal His-tag (cynomolgus monkey).
T5 construct: also called cyno FcgRIIa2; cynoFcγRIIa2
T5 chain: T2 chain with P95T, T121A, I127K, A128S, K130N, D135N, R142Q
Description: SPR (BIACORE), antibody captured, FcgR analyte.
B1 registered an equilibrium dissociation constant (Kd) of 2300 nM.
B2: the equilibrium dissociation constant (Kd) was found to be 2300 nM.
The same measure, in the same setting: with B3 the figure was 2200 nM; with B4, 1300 nM; with B5, 13000 nM.
Same read-out and setting: with B6 the figure was 1100 nM.
Same read-out and setting: next, B7: 1600 nM; B8: 11000 nM.
For the molecule B9, the Kd came to 1600 nM.
B10 yielded a Kd of 33000 nM.
Still for that read-out and setting: with B11 the figure was 1200 nM.

The next assay has as its target T6, human FcγRIIb extracellular domain with C-terminal His-tag (human, UniProt P31994 43-217).
T6 construct: also called human FcgRIIb
T6 sequence: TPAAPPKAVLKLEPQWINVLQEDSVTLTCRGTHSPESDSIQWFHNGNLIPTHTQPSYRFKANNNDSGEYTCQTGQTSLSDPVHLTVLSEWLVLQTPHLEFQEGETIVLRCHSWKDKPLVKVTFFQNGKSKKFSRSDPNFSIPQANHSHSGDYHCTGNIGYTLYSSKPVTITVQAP
Kind of assay: SPR (BIACORE), antibody captured, FcgR analyte.
In turn, B1 showed a Kd of 1700 nM.
Still for that read-out and setting: next, B2: 1400 nM; B3: 2500 nM; B4: 1100 nM.
Same read-out and setting: with B5 the figure was 510 nM; with B6, 1200 nM.
The molecule B7 showed a Kd of 690 nM.
On the same count and under the same terms, with B8 the figure was 1000 nM; with B9, 1200 nM; with B10, 1500 nM.
Turning to B11, the Kd was 1100 nM.

For another assay, the target named is T7, human FcγRIIIaV extracellular domain with C-terminal His-tag (human, UniProt P08637 17-208).
T7 construct: also called human FcgRIIIaV
T7 sequence (P08637 17-208 F176V): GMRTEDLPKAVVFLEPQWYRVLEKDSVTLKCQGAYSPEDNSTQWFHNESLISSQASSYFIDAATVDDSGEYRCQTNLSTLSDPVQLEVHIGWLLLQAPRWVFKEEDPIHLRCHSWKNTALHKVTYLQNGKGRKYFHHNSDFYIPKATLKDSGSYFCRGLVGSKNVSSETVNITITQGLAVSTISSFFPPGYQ
Description: SPR (BIACORE), antibody captured, FcgR analyte.
Regarding B1, the Kd turned out to be 8300 nM.
Still for that read-out and setting: with B2 the figure was 3500 nM.
The same measure, in the same setting: next, B3: 7800 nM; B4: 5500 nM; B5: 6700 nM.
B6 showed a Kd of 4300 nM.
In turn, B7 showed a Kd of 8800 nM.
Still for that read-out and setting: with B8 the figure was 4500 nM; with B9, 9000 nM.
Turning to B10, the dissociation constant (Kd) was determined as 5200 nM.
The same measure, in the same setting: with B11 the figure was 5700 nM.

A further assay concerns the target T8, human FcγRIIaH extracellular domain with C-terminal His-tag (human, UniProt P12318 34-217).
T8 construct: also called human FcgRIIaH; FcγRIIa (type H)
T8 sequence: T1 chain with R134H
Description: SPR (BIACORE), antibody captured, FcgR analyte.
As for B1, binding was put at a Kd of 430 nM.
On the same count and under the same terms, next, B2: 490 nM; B3: 420 nM; B4: 190 nM.
On the same count and under the same terms, with B5 the figure was 220 nM; with B6, 210 nM.
With B7, binding was put at a Kd of 350 nM.
The same measure, in the same setting: next, B8: 110 nM; B9: 220 nM; B10: 390 nM.
The same measure, in the same setting: with B11 the figure was 240 nM.

The target in a further assay is T1, human FcγRIIaR extracellular domain …. Description: SPR (BIACORE), antibody captured, FcgR analyte.
B1 gave a Kd of 410 nM.
Still for that read-out and setting: with B2 the figure was 340 nM; with B3, 740 nM; with B4, 210 nM.
Same read-out and setting: next, B5: 85 nM.
Still for that read-out and setting: next, B6: 160 nM.
In the case of B7, the Kd worked out at 160 nM.
Same read-out and setting: next, B8: 280 nM.
On the same count and under the same terms, with B9 the figure was 260 nM; with B10, 300 nM; with B11, 170 nM.
